Data on 56 variants can be found in the supplement of paper PMC10201428.

The labels stand for the following.
B1: library; a variant is named by its letters at N, in order (parent)
chain: ACATTTGTTGATACAACCATAAAATGATAATTACACCCATAAATTGATAATTATCACACCCANNNNNNNNNNNNNNCTCTGATCATAGTCAGACCAACATTGCTACGACCCGTATTCGCACCGACAC

± gives the standard deviation of the averaged measurements.

Series [1] covers variants of B1. Description: relative integration efficiency (T-RL orientation) vs wild-type transposon end (log2 (normalized fold change)); transposon end mutated: right end (5 bp flank + 75 bp right end); higher = more efficient transposition. The settings on record: with VchCAST RNA-guided transposition machinery (E. coli BL21(DE3) host, lacZ target). The method, then:
(§1)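 Pooled, barcoded VchCAST (Tn6677) mini-transposon donor libraries; each variable transposon-end sequence sits in a fixed pDonor mini-transposon context (10-bp barcode and cargo not included). Left- or right-end libraries were co-transformed with pEffector (TniQ-Cascade, TnsABC, lacZ crRNA, T7, 0.1 mM IPTG) into E. coli BL21(DE3) and grown 18 h at 37 C. T-LR and T-RL junction amplicons were sequenced; output/input barcode fold change was normalised to the mean of four wild-type barcodes and log2-transformed. Two biological replicates; zero-count/undetected variants carry floor values (-10 / -15), censored here. Barcode uncoupling by PCR recombination adds noise.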

Series [2] covers variants of B1. Nature of the series: relative integration efficiency (T-LR orientation) vs wild-type transposon end (log2 (normalized fold change)); transposon end mutated: right end (5 bp flank + 75 bp right end); higher = more efficient transposition. The following applies: with VchCAST RNA-guided transposition machinery (E. coli BL21(DE3) host, lacZ target). The protocol:
as §1

Take TAAATTGATAAAGC: the “relative integration efficiency (log2)” value in series [1] was -0.251 ± 0.025; in series [2] it was 0.6224 ± 0.0024.

On to TAAATTCTATTTGC, for which the entries for the “relative integration efficiency (log2)” value in series [1] and in series [2] were -0.619 ± 0.18 and 2.22 ± 0.053, respectively.

As for TAAATTGAGCTTGC, the figures for the “relative integration efficiency (log2)” value in series [1] and in series [2] were -0.264 ± 0.034 and 1.51 ± 0.32, respectively.

In the case of TAAATTGATAATGC, the “relative integration efficiency (log2)” value was 0.111 ± 0.029 in series [1] and 0.354 ± 0.21 in series [2].

As to TAAATTGAATTTGC, the “relative integration efficiency (log2)” value in series [1] was -0.179 ± 0.17; in series [2], 1.16 ± 0.42.

Take TAAAAAGATATTGC: the “relative integration efficiency (log2)” value was -0.0646 ± 0.032 in series [1] and 1.04 ± 0.075 in series [2].

Turning to TAAATTGATATTAC, the “relative integration efficiency (log2)” value in series [1] was -0.14 ± 0.1; in series [2] it was 0.0276 ± 0.11.

Regarding TAAATTGATATACG C77G, the “relative integration efficiency (log2)” value in series [1] was determined as 0.221 ± 0.0027; in series [2], 0.3 ± 0.0057.

Take TAAATTGATATCGC: the “relative integration efficiency (log2)” value in series [1] was 0.0222 ± 0.012; in series [2], -0.0692 ± 0.048.

Take TAAATTGATATTCC: the “relative integration efficiency (log2)” value in series [1] was -0.154 ± 0.11; in series [2], -0.146 ± 0.21.

For TAAATTGATATTCG, the “relative integration efficiency (log2)” value in series [1] is -0.0179 ± 0.025; in series [2], -0.258 ± 0.12.

TAAAGGTCTATTGC: the “relative integration efficiency (log2)” value in series [1] is -0.635 ± 0.042; in series [2], 2.17 ± 0.33.

Take AAAATTGATATTGC: the “relative integration efficiency (log2)” value was -0.0332 ± 0.012 in series [1] and 0.998 ± 0.085 in series [2].

With TAAATTGATACTGC, the “relative integration efficiency (log2)” value is -0.0852 ± 0.044 in series [1] and 0.177 ± 0.018 in series [2].

For the variant TAAATTGATATTGC, the “relative integration efficiency (log2)” value was -0.0034 ± 0.1 in series [1] and -0.0165 ± 0.24 in series [2].

Turning to TAAATTGATATTGA, the “relative integration efficiency (log2)” value in series [1] was found to be 0.138 ± 0.028; in series [2], 0.0994 ± 0.1.

Regarding TAAATTGAAATTGC, the figures for the “relative integration efficiency (log2)” value in series [1] and in series [2] were -0.187 ± 0.13 and 1.06 ± 0.27, respectively.

For the variant TAAATTAATATTGC, the “relative integration efficiency (log2)” value in series [1] is -0.319 ± 0.15; in series [2], 1.63 ± 0.083.

Turning to CAAATTGATATTGC, the “relative integration efficiency (log2)” value was -0.643 ± 0.087 in series [1] and 1.861 ± 0.015 in series [2].

Consider TAAATTGAATAAGC, for which the “relative integration efficiency (log2)” value in series [1] is -0.554 ± 0.076; in series [2] it was 1.55 ± 0.079.

As to TAAATTGAGCGGGC, the “relative integration efficiency (log2)” value in series [1] was -0.15 ± 0.012; in series [2], 2.13 ± 0.086.

Regarding TAAATGTCGATTGC, the results for the “relative integration efficiency (log2)” value in series [1] and in series [2] were -0.671 ± 0.07 and 2.165 ± 0.0045, respectively.

Take TAAAATGATATTGC: the “relative integration efficiency (log2)” value in series [1] was determined as 0.0615 ± 0.025; in series [2], 0.274 ± 0.058.

Turning to TAAATTGATATGGC, the “relative integration efficiency (log2)” value in series [1] came to 0.087 ± 0.065; in series [2] it was 0.317 ± 0.14.

Take TAAAAACTTATTGC: the “relative integration efficiency (log2)” value was -0.368 ± 0.07 in series [1] and 2.34 ± 0.09 in series [2].

On to TAAATTCATATTGC, for which the “relative integration efficiency (log2)” value was -0.149 ± 0.23 in series [1] and 2.62 ± 0.096 in series [2].

In the case of TAAAGTGATATTTA C59A, the entries for the “relative integration efficiency (log2)” value in series [1] and in series [2] were -0.094 ± 0.095 and -0.17 ± 0.3, respectively.

Take TAAATTGAGATTGC: the “relative integration efficiency (log2)” value in series [1] was -0.3392 ± 0.00035; in series [2], 0.765 ± 0.23.

In the case of TAAATTGACATTGC, the “relative integration efficiency (log2)” value in series [1] is -0.167 ± 0.015; in series [2], 0.353 ± 0.12.

In the case of TAAATACATATTGC, the “relative integration efficiency (log2)” value was -0.637 ± 0.26 in series [1] and 2.3 ± 0.041 in series [2].

In the case of TAAATTGATAAACG, the “relative integration efficiency (log2)” value in series [1] was -0.208 ± 0.021; in series [2], 0.342 ± 0.21.

For the variant TAAATTGATAGGTA, the “relative integration efficiency (log2)” value in series [1] was -0.219 ± 0.01; in series [2], 1.09 ± 0.099.

As to TAAATTGATATTGC A1C, the results for the “relative integration efficiency (log2)” value in series [1] and in series [2] were -0.117 ± 0.016 and -0.165 ± 0.27, respectively.

With TAAATTGATATTGC A1T, the figures for the “relative integration efficiency (log2)” value in series [1] and in series [2] were -0.0487 ± 0.062 and -0.0517 ± 0.26, respectively.

TAAATTGATATTGC A1G: the entries for the “relative integration efficiency (log2)” value in series [1] and in series [2] were -0.139 ± 0.068 and -0.251 ± 0.32, respectively.

For the variant GAAATTGATATTGC, the “relative integration efficiency (log2)” value is -0.446 ± 0.11 in series [1] and 2.2 ± 0.046 in series [2].

TAAATTGATATACC: the entries for the “relative integration efficiency (log2)” value in series [1] and in series [2] were -0.223 ± 0.13 and 0.207 ± 0.58, respectively.

As for TAAAGGGATATTGC, the entries for the “relative integration efficiency (log2)” value in series [1] and in series [2] were -0.254 ± 0.0064 and 1.63 ± 0.069, respectively.

As to TAAATTGATAATTA, the “relative integration efficiency (log2)” value in series [1] was 0.000518 ± 0.059; in series [2] it was 0.0298 ± 0.42.

For TAAATGTATATTGC, the “relative integration efficiency (log2)” value in series [1] was -0.000422 ± 0.028; in series [2], 2.416 ± 0.0088.

Take TAAATTGATATGTC: the “relative integration efficiency (log2)” value in series [1] was -0.17 ± 0.058; in series [2] it was 0.485 ± 0.25.

On to TAAATGGATATTGC, for which the figures for the “relative integration efficiency (log2)” value in series [1] and in series [2] were -0.161 ± 0.039 and 1.54 ± 0.17, respectively.

With TAAACTGATATTGC, the results for the “relative integration efficiency (log2)” value in series [1] and in series [2] were -0.0927 ± 0.037 and 0.318 ± 0.14, respectively.

On to TAAATTGATATTGC A3C, for which the “relative integration efficiency (log2)” value was -0.109 ± 0.047 in series [1] and -0.337 ± 0.37 in series [2].

As to TAAATTGATATTGC A3G, the “relative integration efficiency (log2)” value came to 0.00116 ± 0.033 in series [1] and 0.0517 ± 0.23 in series [2].

TAAATTGATATGTA C77A: the figures for the “relative integration efficiency (log2)” value in series [1] and in series [2] were -0.158 ± 0.089 and 0.332 ± 0.19, respectively.

With TAAATTGATATAGC, the entries for the “relative integration efficiency (log2)” value in series [1] and in series [2] were -0.0924 ± 0.038 and 0.0501 ± 0.056, respectively.

For TAAATTGATAGGGC, the results for the “relative integration efficiency (log2)” value in series [1] and in series [2] were 0.0268 ± 0.029 and 1.18 ± 0.057, respectively.

For the variant TAAAATGATAATTA C59A, the “relative integration efficiency (log2)” value was 0.000716 ± 0.075 in series [1] and -0.0217 ± 0.15 in series [2].

For TAAATTCTTATTGC, the “relative integration efficiency (log2)” value was -0.485 ± 0.094 in series [1] and 2.36 ± 0.24 in series [2].

Consider TAAATAGATATTGC, for which the “relative integration efficiency (log2)” value in series [1] is -0.222 ± 0.0045; in series [2] it was 1.53 ± 0.13.

Take TAAATACTAATTGC: the “relative integration efficiency (log2)” value in series [1] is -0.376 ± 0.27; in series [2] it was 2.61 ± 0.13.

As for TAAATTGATATTGA C77A, the “relative integration efficiency (log2)” value in series [1] amounted to 0.00362 ± 0.0095; in series [2] it was 0.066 ± 0.4.

In the case of TAAAGTGATATTGC, the “relative integration efficiency (log2)” value in series [1] is 0.000666 ± 0.021; in series [2] it was 0.119 ± 0.27.

Take TAAATTGATAGTGC: the “relative integration efficiency (log2)” value is -0.0439 ± 0.022 in series [1] and 0.754 ± 0.013 in series [2].

As to TAAATCGATATTGC, the “relative integration efficiency (log2)” value in series [1] is -0.159 ± 0.022; in series [2], 0.237 ± 0.063.
